{"source": "patent US6623741", "key": {"[1]": {"target": "T1, MF-IV (MF5.1): E. coli maltose binding protein fused to RSV F protein residues 142-302 (E. coli; respiratory syncytial virus (strain A2)), P03420", "T1 chain": "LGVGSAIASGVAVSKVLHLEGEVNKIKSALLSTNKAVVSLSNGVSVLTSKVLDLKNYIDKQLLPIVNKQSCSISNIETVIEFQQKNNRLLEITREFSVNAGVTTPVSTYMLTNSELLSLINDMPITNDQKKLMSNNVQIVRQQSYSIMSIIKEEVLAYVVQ", "assay": "competitive binding assay (B50) on the MF5.1 fusion protein; reference T112"}, "[2]": {"target": "T1, MF-IV (MF5.1): E. coli maltose binding …"}, "[3]": {"target": "T1582 (respiratory syncytial virus (strain A2))", "assay": "sedimentation equilibrium, 35 µM peptide, single ideal species fit (self-association); monomer 4897"}, "[4]": {"target": "T1582 (respiratory syncytial virus (strain A2))", "assay": "sedimentation equilibrium, 35 µM peptide (self-association)"}, "[5]": {"target": "T1581 (respiratory syncytial virus (strain A2))", "assay": "sedimentation equilibrium, 35 µM peptide, single ideal species fit (self-association); monomer 5007"}, "[6]": {"target": "T1581 (respiratory syncytial virus (strain A2))", "assay": "sedimentation equilibrium, 35 µM peptide (self-association)"}, "[7]": {"target": "T1772 (respiratory syncytial virus (strain A2))", "assay": "sedimentation equilibrium (self-association)"}, "[8]": {"target": "T1772 (respiratory syncytial virus (strain A2))"}, "[9]": {"target": "T1772 (respiratory syncytial virus (strain A2))", "assay": "sedimentation equilibrium, value at 25 µM, single ideal species fit (self-association); monomer 5393"}, "[10]": {"target": "T1584 (respiratory syncytial virus (strain A2))", "assay": "sedimentation equilibrium, 35 µM peptide, single ideal species fit (self-association); monomer 5506"}, "[11]": {"target": "T1584 (respiratory syncytial virus (strain A2))", "assay": "sedimentation equilibrium, 35 µM peptide (self-association)"}, "[12]": {"target": "T1623 (respiratory syncytial virus (strain A2))", "assay": "sedimentation equilibrium, 35 µM peptide, single ideal species fit (self-association); monomer 5750"}, "[13]": {"target": "T1623 (respiratory syncytial virus (strain A2))", "assay": "sedimentation equilibrium, 35 µM peptide (self-association)"}, "[14]": {"target": "T1772 (respiratory syncytial virus (strain A2))", "remark": "listed apart in the source"}, "[15]": {"target": "T1772 (respiratory syncytial virus (strain A2))", "remark": "listed apart in the source"}, "[16]": {"target": "T1772 (respiratory syncytial virus (strain A2))", "remark": "listed apart in the source"}, "[17]": {"target": "T1772 (respiratory syncytial virus (strain A2))", "remark": "listed apart in the source"}, "[18]": {"target": "T112 (respiratory syncytial virus (strain A2))"}}, "note": "Where “and” joins values, the source holds several entries; their conditions need not be identical. Equal values may be shown once. Read-outs that look alike come from different tables or passages of the source.", "data": [{"binder": "DEFDASISQVNEKINQSLAFIRKSDELL (modifications not checked)", "note": "[T67]", "values": [{"measurement": "fold lower binding affinity than T112", "setting": "[1]", "value": 5, "unit": "fold"}, {"measurement": "binding affinity", "setting": "[2]", "value": 5, "unit": "nM"}]}, {"binder": "VLHLEGEVNKIKSALLSTNKAVVSLSNGVSVLTSKVLDLKNYIDK (modifications not checked)", "note": "[T1582]", "values": [{"measurement": "weight-averaged molecular weight", "setting": "[3]", "value": 7520, "unit": "g/mol"}, {"measurement": "N-mer (weight-averaged molecular weight / monomer molecular weight)", "setting": "[4]", "value": 1.5}]}, {"binder": "VLHLEGEVNKIKSALLSTNKAVVSLSNGVSVLTSKVLDLKNYIDKQ (modifications not checked)", "note": "[T1581]", "values": [{"measurement": "weight-averaged molecular weight", "setting": "[5]", "value": 9120, "unit": "g/mol"}, {"measurement": "N-mer (weight-averaged molecular weight / monomer molecular weight)", "setting": "[6]", "value": 1.8}]}, {"binder": "AVSKVLHLEGEVNKIKSALLSTNKAVVSLSNGVSVLTSKVLDLKNYIDKQ (modifications not checked)", "note": "[T1772]", "values": [{"measurement": "N-mer (weight-averaged molecular weight / monomer molecular weight)", "setting": "[7]", "value": 2.4}, {"measurement": "weight-averaged molecular weight", "setting": "[8]", "value": 12900, "unit": "Da"}, {"measurement": "weight-averaged molecular weight", "setting": "[9]", "value": 12900, "unit": "g/mol"}]}, {"binder": "T1584 (modifications not checked) peptide: AVSKVLHLEGEVNKIKSALLSTNKAVVSLSNGVSVLTSKVLDLKNYIDKQL", "values": [{"measurement": "weight-averaged molecular weight", "setting": "[10]", "value": 11700, "unit": "g/mol"}, {"measurement": "N-mer (weight-averaged molecular weight / monomer molecular weight)", "setting": "[11]", "value": 2.1}]}, {"binder": "T1623 (modifications not checked) peptide: SGVAVSKVLHLEGEVNKIKSALLSTNKAVVSLSNGVSVLTSKVLDLKNYIDKQL", "values": [{"measurement": "weight-averaged molecular weight", "setting": "[12]", "value": 12900, "unit": "g/mol"}, {"measurement": "N-mer (weight-averaged molecular weight / monomer molecular weight)", "setting": "[13]", "value": 2.2}]}, {"binder": "VFPSDEFDASISQVNEKINQSLAFIRKSDELLHNV (modifications not checked)", "note": "[T112]", "values": [{"measurement": "helicity of the peptide mixture", "setting": "[14]", "value": 86, "unit": "%"}, {"measurement": "weight-averaged molecular weight of the mixture", "setting": "[15]", "value": "15300 Da and 22000 Da and 17300 Da"}, {"measurement": "melting temperature (Tm) of the peptide mixture", "setting": "[16]", "value": 87, "unit": "° C."}, {"measurement": "weight-averaged molecular weight of the mixture", "setting": "[17]", "value": 21100, "unit": "Da"}, {"measurement": "weight-averaged molecular weight", "setting": "[18]", "value": 3980, "unit": "Da"}]}]}
